Laboratory results as given in patent US20220323495A1 (NATIONAL RESEARCH COUNCIL OF CANADA, published 2022).

B1: F265-5B7 anti-EGFRvIII monoclonal antibody (antibody, V domains shown)
VH: QIQLVQSGPELKKPGETVMISCKASGYSFTNYGMNWVKQAPEKDLKWMGWINTYTGESRYVDEFKGRFAFSLETSVSIVYLKINNLKNEDMATYFCARGPNFDVWGTGTTVTVSS
VL: not shown
notes: Mouse hybridoma IgG, tested as supernatant or Protein G purified mAb; also called 5B7-2
B2: F269-3D12 anti-EGFRvIII monoclonal antibody (antibody, V domains shown)
VH: EVQLQQSGPELVKPGSSVRISCKASGYTFTDYNMDWVKQSHGKSLEWIGTINPNNGGTSYNQKFKGKATLTVDKSSSTAYMELRSLTSEDSAVYYCARVRQLGLWFAYWGQGTLVTVSA
VL: EIVLTQSPALMAASPGEKVTITCSVSSSISSSNLHWYQQKSETSPKPWIYGTSNLASGVPVRFSGSGSGTSYSLTISSMEAEDAATYYCQQWSSYPLTFGSGTKLEIK
notes: Mouse hybridoma IgG, tested as supernatant or Protein G purified mAb; also called 3D12-2

Experiments:
[1] = biological target: T1, EGFRvIII amino acid residues 15 to 37 with Val17 to Ala mutation, yeast-displayed (human, not fully specified); assay: flow cytometry on yeast displaying the mutated 15-37 fragment
T1 construct: The entry already carries the mutation
T1 peptide: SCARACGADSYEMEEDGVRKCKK
From the text: (§1) Assessment of the binding of anti-EGFRvIII monoclonal antibodies to the fusion proteins expressed on yeast cell surface was done by flow cytometry analysis. Yeast cells were labeled with both the anti-EGFRvIII monoclonal antibody and chicken anti-Myc antibody the latter being used to monitor the level of expression of the fusion protein. Following a wash step, binding of the primary antibodies is probed by a two-color indirect fluorescence labeling using a specific mouse and chicken secondary antibodies for each of the primary antibody respectively.
(§2) To further characterize mAb epitopes within the EGFRvIII 15-37 region, an alanine scan of this region was performed, and modified fragments were expressed at the surface of the yeast. […] The resulting DNAs were expressed at the surface of the yeast and each anti-EGFRvIII mAbs was tested on the corresponding yeast mutant strain by flow cytometry analysis. The original Ala19 and Ala22 were not mutated. Thus, this assay determined the contribution of each amino acid(s) in mAb binding in comparison to the original wild-type fragment (SEQ ID NO:5) which is attributed the value of 100%.

[2] = biological target: T2, EGFRvIII amino acid residues 15 to 37 with Asp23 to Ala mutation, yeast-displayed (human, not fully specified); assay: as above
T2 construct: The entry already carries the mutation
T2 peptide: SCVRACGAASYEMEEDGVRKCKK
From the text: as §1, §2

[3] = biological target: T3, recombinant human wild-type EGFR protein, native (human, UniProt P00533 25-645); assay: ELISA on coated native recombinant antigen; Exp 1, mAb supernatant
T3 construct: Recombinant protein used as ELISA coat; also called EGFRwt; wt EGFR
Method: (§3) Pre- and post-immune sera titers of animals were assessed by ELISA on recombinant EGFRvIII protein. Unless otherwise stated, all incubations were performed at room temperature. Briefly, half-area 96-well plates (Costar #3690) were coated with 25 μl per well of immunogen at 5 μg/ml in PBS and incubated overnight at 4° C. Microplates were washed three times in PBS and blocked for 30 min with PBS containing 1% bovine serum albumin (BSA, Sigma Cat#A7030). Blocking buffer was removed and 25 μl of serial dilutions of sera samples were added. After a 2-h incubation, microplates were washed 4 times with PBS-TWEEN™ 20 0.05% and 25 μl of a 1/5,000 dilution of alkaline phosphatase conjugated F(ab′)′₂ goat anti-mouse IgG (H+L, #115-056-062, Jackson Immunoresearch, Cedarlane, Burlington, ON) in blocking buffer was added. After a 1-h incubation, microplates were washed 4 times and 25 μl of p-nitrophenyl phosphate (pNPP) substrate (Sigma-Aldrich Canada Co., Oakville, ON) at 1 mg/ml in carbonate buffer at pH 9.6 was added and further incubated for 30 min. Absorbance was read at 405 nm using a SpectraMax 340 PC plate reader (Molecular Devices, Sunnyvale, Calif.).
(§4) To evaluate if monoclonal antibodies bind to a conformational epitope, an ELISA analysis on native and denatured recombinant human wild-type EGFR and EGFRvIII proteins were performed. […] Antigens at 1-2 mg/ml were denatured by incubation at 95° C. for 5 min in PBS containing DTT at 40 mM final concentration. They were then incubated on ice for 5 min and diluted at their final coating concentration for ELISA purpose.
(§5) mAbs were purified using HiTrap ProteinG HP 1 mL columns GE Healthcare cat no. 17-0404-01 and desalted using Zeba-spin desalting columns 5 mL (Pierce) pre-equilibrated in PBS and filter sterilized through […] membrane (Millipore). The final concentration of the antibody solutions was determined using a Nano-drop 2000 (ThermoScientific), using IgG as sample type. ELISA was performed as described above (serum titer determination) using 25 μl of mAb supernatant (Exp 1) or purified mAb at 1 μg/ml (Exp 2).

[4] = biological target: T4, recombinant human EGFRvIII protein, native (human, UniProt P00533 298-623); assay: as above
T4 construct: Recombinant extracellular domain used as immunogen and ELISA coat; also called EGFRvIII Native
Method: as §3, §4, §5

[5] = biological target: T5, recombinant human EGFRvIII protein, denatured (human, UniProt P00533 298-623); assay: ELISA on coated denatured recombinant antigen; Exp 1, mAb supernatant
T5 construct: Same protein as m9 after denaturation (95 °C for 5 min in PBS with 40 mM DTT); also called EGFRvIII Denatured
Method: as §3, §4, §5

[6] = biological target: T6, recombinant human wild-type EGFR protein, denatured (human, UniProt P00533 25-645); assay: as above
T6 construct: Same protein as m11 after denaturation (95 °C for 5 min in PBS with 40 mM DTT); also called EGFRwt Denatured
Method: as §3, §4, §5

[7] = biological target: T3, recombinant human wild-type EGFR …; assay: ELISA on coated native recombinant antigen; Exp 2, purified mAb 1 µg/ml
Method: as §3, §4, §5

[8] = biological target: T4, recombinant human EGFRvIII protein, …; assay: as above
Method: as §3, §4, §5

[9] = biological target: T7, human EGFRvIII amino acid residues 15 to 37, yeast-displayed (human, not fully specified); assay: yeast display; smallest EGFRvIII fragment the antibody was able to bind
T7 construct: also called EGFRvIII 15-37 fragment; aa 15-37
T7 peptide: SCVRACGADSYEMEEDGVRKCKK
From the text: as §1

[10] = biological target: T8, EGFRvIII amino acid residues 15 to 37 with Met27 to Ala mutation, yeast-displayed (human, not fully specified); assay: flow cytometry on yeast displaying the Ala-mutated 15-37 fragment; normalized to Myc-tag; wild-type fragment = 100%
T8 construct: The entry already carries the mutation
T8 peptide: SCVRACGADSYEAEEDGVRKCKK
From the text: as §1, §2

[11] = biological target: T9, EGFRvIII amino acid residues 15 to 37 with Val32 to Ala mutation, yeast-displayed (human, not fully specified); assay: as above
T9 construct: The entry already carries the mutation
T9 peptide: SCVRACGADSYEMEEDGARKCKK
From the text: as §1, §2

[12] = biological target: T10, EGFRvIII amino acid residues 15 to 37 with Lys34 to Ala mutation, yeast-displayed (human, not fully specified); assay: as above
T10 construct: The entry already carries the mutation
T10 peptide: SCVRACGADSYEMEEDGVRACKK
From the text: as §1, §2

| Binder | binding result [1] | binding result [2] | ELISA absorbance (405 nm) [3] [A405] | ELISA absorbance (405 nm) [4] [A405] | ELISA absorbance (405 nm) [5] [A405] | ELISA absorbance (405 nm) [6] [A405] | ELISA absorbance (405 nm) [7] [A405] | ELISA absorbance (405 nm) [8] [A405] | binding result [9] | % of binding compared to the wild-type sequence [10] [%] | % of binding compared to the wild-type sequence [11] [%] | % of binding compared to the wild-type sequence [12] [%] |
| --- | --- | --- | --- | --- | --- | --- | --- | --- | --- | --- | --- | --- |
| B1 | no binding | no binding | 0.008 | 1.14 | 1.67 | 0.046 | 0.002 | 0.874 | binds | 111 | 101 | 193 |
| B2 |  |  | 0.095 | 1.17 | 1.86 | 0.045 | 0.011 | 1.12 | binds | 75.3 | 93.8 | 137 |
